One experiment concerns the target T1, hVEGF-A F17A/M81A (human, UniProt P15692-4 34-135, F17A; M81A).
T1 construct: positions probably counted on the mature protein
T1 sequence (looked up): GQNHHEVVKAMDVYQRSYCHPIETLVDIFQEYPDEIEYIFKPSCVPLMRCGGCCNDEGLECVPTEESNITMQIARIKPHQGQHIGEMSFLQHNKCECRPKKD
As to the kind of experiment: site-directed mutants, SPR; no numbers printed for this mutant.

Experiment [1] has as its target T2, hVEGF-A (human, UniProt P15692-4 27-191, limits assumed).
T2 construct: also called human VEGF-A; WT
As to the kind of experiment: KDR-VEGF competition ELISA.

Another experiment deals with IGF-1 (human, UniProt P05019 49-118). As to the kind of experiment: competition ELISA: IGF coated, constant IGFR receptor, peptide titrated. For orientation: In an ELISA, binding on a coated surface is turned into a signal by an enzyme label.
The target of a further experiment is EGF (human, UniProt P01133 971-1023). As to the kind of experiment: competition ELISA: EGF coated, constant EGFR receptor, peptide titrated.
Sequence of EGF (P01133 971-1023 limits assumed): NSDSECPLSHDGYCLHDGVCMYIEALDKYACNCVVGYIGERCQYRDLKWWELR
In experiment [2] the target is T2, hVEGF-A. As to the kind of experiment: cell-based or functional assay.
Experiment [3] addresses T2, hVEGF-A. As to the kind of experiment: cell-based or functional assay. This is another data set of the same source.
A further experiment concerns the target NGF (human, UniProt P01138 122-241, limits assumed). As to the kind of experiment: competition ELISA: NGF coated, constant NGFR receptor, peptide titrated.
The target in experiment [4] is T3, hVEGF-A (8-109) (human, UniProt P15692 214-315).
T3 sequence (looked up): T1 sequence (looked up) with A10F, A74M
As to the kind of experiment: competition ELISA: VEGF-A (8-109) coated, constant Flt-1 receptor, peptide titrated; blocked ligand: Flt-1. The procedure: (§1) Binding specificity of each peptide was established by competition ELISA. […] After blocking with block buffer (PBS with 0.5% BSA and 0.05% TWEEN®20) for 2 hours at room temperature, the receptor-Fc fusions or biotinylated receptors were serially diluted using assay buffer (PBS with 0.5% BSA and 0.05% TWEEN®20) and incubated for 1 hour at room temperature. […] Competition ELISA was conducted in an identical fashion as described above except after blocking, a mixture of serially diluted peptide containing a constant concentration of receptor-Fc fusion or biotinylated receptor (concentration of receptor was set to EC₆₀) was added and incubated for 1 hour. All recombinant human proteins and antibodies were purchased from R &D Systems (Minneapolis, Minn.).

For a further experiment, the target named is T4, VEGF-B (human, UniProt P49765-2 22-188, limits assumed).
T4 sequence (looked up): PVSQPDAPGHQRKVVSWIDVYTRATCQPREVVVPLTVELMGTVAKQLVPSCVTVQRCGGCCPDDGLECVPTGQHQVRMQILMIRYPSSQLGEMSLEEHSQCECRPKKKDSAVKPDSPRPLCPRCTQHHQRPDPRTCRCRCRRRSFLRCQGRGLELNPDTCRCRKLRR
As to the kind of experiment: competition ELISA: VEGF-B coated, constant Flt-1 receptor, peptide titrated.

The target in the next experiment is PDGF-ββ (human, UniProt P01127 82-190). As to the kind of experiment: competition ELISA: PDGF coated, constant PDGFR receptor, peptide titrated.
Sequence of PDGF-ββ (P01127 82-190): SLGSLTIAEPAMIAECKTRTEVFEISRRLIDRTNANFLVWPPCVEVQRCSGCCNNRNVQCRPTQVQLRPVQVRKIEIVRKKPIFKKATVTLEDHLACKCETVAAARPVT
The next experiment concerns the target human VEGF-A 165 (human, UniProt P15692-4 27-191). As to the kind of experiment: competition ELISA: VEGF-A 165 coated, constant KDR receptor, peptide titrated; blocked ligand: KDR. The procedure:
as §1

The next experiment addresses T5, VEGF-C (human, UniProt P49767 103-227, limits assumed).
T5 sequence (looked up): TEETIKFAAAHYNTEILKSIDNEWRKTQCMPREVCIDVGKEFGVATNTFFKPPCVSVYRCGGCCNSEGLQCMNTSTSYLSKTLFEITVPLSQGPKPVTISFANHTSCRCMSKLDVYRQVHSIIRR
As to the kind of experiment: competition ELISA: VEGF-C coated, constant Flt-4 receptor, peptide titrated.

The target of a further experiment is T6, hVEGF-A Y21A (human, UniProt P15692-4 34-135, Y21A).
T6 construct: position probably counted on the mature protein
T6 sequence (looked up): T1 sequence (looked up) with A10F, Y14A, A74M
As to the kind of experiment: SPR. The procedure: Depending on the format of the assay either a streptavidin sensor (SA) or a dextran-coated (CM5) sensor was utilized as described below.
Reaction was then quenched by addition of 10 molar excess of Glycine pH 8.0 and the sample was buffer exchanged into PBS using an Amicon 0.5 mL 3000 MWCO ultra-centrifugal filters (EMD Millipore). The biotinylation state of the protein was verified by LC-MS analysis. Biotinylated VEGF-A was then captured on the surface until a resonance unit (RU) signal of about ˜400. For immobilization of VEGF-A on CM5 sensor, the surface was first activated with a mixture of N-ethyl-N′-(3-dimethylaminopropyl)carbodiimide hydrochloride and N-hydroxysuccinimide (EDC/NHS) according to the supplier instructions. VEGF-A was then diluted into coupling buffer (0.1 M Acetate Buffer, pH 5.0) and injected until the signal reached about ˜400 RU followed by a wash with 1 M ethanolamine pH 8.0 to quench remaining activated sites.
Background: SPR reads the build-up and loss of mass on a sensor chip optically.

Experiment [5] deals with T2, hVEGF-A. As to the kind of experiment: cell-based or functional assay. This is another data set of the same source.
In experiment [6] the target is T3, hVEGF-A (8-109). As to the kind of experiment: competition ELISA: VEGF-A (8-109) coated, constant Flt-1 receptor, peptide titrated; blocked ligand: Flt-1. The procedure:
as §1
This is another data set of the same source.

Experiment [7] concerns the target T3, hVEGF-A (8-109). As to the kind of experiment: competition ELISA: VEGF-A (8-109) coated, constant KDR receptor, peptide titrated; blocked ligand: KDR. The procedure:
as §1

Usually IC50 stands for the point on the concentration scale where inhibition reaches its midpoint. Higher therefore signals lower potency. As usually defined, the Kd is the equilibrium constant for the complex coming apart.

Substitutions are numbered along the chain they refer to. Read-outs that look alike come from different tables or passages of the source.

Sequence of human VEGF-A 165 (P15692 other isoform, or with tags, fused parts or gaps limits assumed): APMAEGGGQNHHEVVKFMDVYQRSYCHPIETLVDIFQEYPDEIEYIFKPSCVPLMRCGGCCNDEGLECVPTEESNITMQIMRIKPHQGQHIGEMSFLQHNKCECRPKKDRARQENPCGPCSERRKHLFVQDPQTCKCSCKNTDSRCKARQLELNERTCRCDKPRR
Sequence of NGF (P01138 122-241 limits assumed): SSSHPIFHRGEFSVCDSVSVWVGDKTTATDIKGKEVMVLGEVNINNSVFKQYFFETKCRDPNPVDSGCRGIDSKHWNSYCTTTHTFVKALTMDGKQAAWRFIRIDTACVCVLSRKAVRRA

B1: VEGF_CKP9.54.90 (designed binder)
chain: GCNIMLPFWGCGRDFECLAGCVCQYYQSCG
With B1, the binding result is listed as “binds” with hVEGF-A F17A/M81A; “no binding (tested: 5 µM)” with IGF-1; “no binding (tested: 5 µM)” with EGF; “no binding (tested: 5 µM)” with NGF; “no binding (tested: 5 µM)” with VEGF-B; “no binding (tested: 5 µM)” with PDGF-ββ. Also, the binding result in the experiment with VEGF-C is recorded as “no binding (tested: 5 µM)”. For the same molecule, the IC50 in the experiment with hVEGF-A [1] was found to be 0.2 nM. The “Cellular IC50” value in the experiment with hVEGF-A [2], with hVEGF-A [3] and in the experiment with hVEGF-A [5] was 1.35 nM in each case. For the same molecule, the “FOLD [..] [..] TO VARIANT 9.54.90” value in the experiment with hVEGF-A [2] and with hVEGF-A [5] was 1 fold in each case. The “IC50 (read off the curve)” value with hVEGF-A (8-109) [4] was ~70 nM; with human VEGF-A 165 it was ~30 nM; with hVEGF-A (8-109) [6] it was ~70 nM; with hVEGF-A (8-109) [7], ~20 nM. This molecule also displayed a Kd with hVEGF-A Y21A of 3.5 nM.

The values above are taken from patent US20200325187A1 (Genentech, published 2020).
